Reference: patent publication US20240317847A1 (Bayer, published 2024)
Changes are numbered by the printed parent chain. Each block holds one binder with its values, some of them ahead of it.

Key:
[1] = target: T1, human IL2Ra (Peprotech, Germany, #200-02RC) (human, UniProt P01589 22-240); assay: direct binding ELISA on coated IL2Ra
T1 construct: Coated on the ELISA plate; also called hIL2Ra; IL-2 receptor alpha
T1 sequence (looked up): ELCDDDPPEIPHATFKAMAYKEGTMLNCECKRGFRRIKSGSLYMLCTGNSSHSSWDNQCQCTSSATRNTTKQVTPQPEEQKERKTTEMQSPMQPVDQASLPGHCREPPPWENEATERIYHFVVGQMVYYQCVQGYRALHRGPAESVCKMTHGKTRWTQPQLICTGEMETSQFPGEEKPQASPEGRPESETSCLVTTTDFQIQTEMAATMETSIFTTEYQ

[2] = target: T1, human IL2Ra (Peprotech, Germany, …); assay: direct binding ELISA on coated IL2Ra, antibody at 3.3E-7 [M]
Procedure: IL2RA (Peprotech, Germany, #200-02RC) was coated at 1 or 0 μg/ml (buffer only control) in 30 μl coating buffer (Candor, #113500) per well on a 384 well microtiter plate (Maxisorb, Nunc, #460518) over night at 4-8° C. After two washes with 50 μl/well washing buffer (PBS+0.05% Tween, pH 7.4), the plates were incubated for two hours at room temperature with 50 μl/well SmartBlock (Candor, #113500). After blocking, the plates were washed three times with washing buffer. […] After three additional washes, 30 μl anti mouse IgG HRP-conjugated antibody (Biotechne, HAF007), diluted 1:1000 in PBS+0.05% Tween (pH 7.4), were added per well and incubated for one hour. After three additional washes, a mixture of Amplex red (Invitrogen, #12222, 10 mM stock solution in DMSO) 1:1000 diluted in PBS and H2O2 (30%, Merck, #107209)) diluted 1:10000 in PBS were added as substrate with 30 μl per well and incubated for 20 min in the dark. Relative fluorescence was measured with a microtiter plate reader at 535/590 nm.

[3] = target: T2, human IL-11 (Invigate, e.g., lot #C121021-19) (human, UniProt P20809 22-199); assay: Tri-complex ELISA: antibody titrated against 8 nM human IL-11, 2 nM human gp130-human-Fc and 2 nM murine IL11RA-murine-Fc
T2 construct: Bought protein; also called hIL-11; hIL11
T2 sequence: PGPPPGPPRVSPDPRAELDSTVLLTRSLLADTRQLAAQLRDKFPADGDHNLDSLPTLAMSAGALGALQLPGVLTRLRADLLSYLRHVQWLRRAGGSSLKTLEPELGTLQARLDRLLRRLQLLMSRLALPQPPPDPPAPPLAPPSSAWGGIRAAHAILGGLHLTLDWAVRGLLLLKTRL
Procedure: In the Tri-complex ELISA format IL-11 antibodies are tested for their ability to inhibit the formation of a complex consisting of murine or human gp130-Fc fusion protein, with murine or human IL-11, and a murine IL11RA-Fc fusion protein. The assay format was adapted according to FIG. 18 (a, b), depending on whether murine or human IL-11 IgG antibodies were tested.
The assay was performed using High Binding microtiter plates (Greiner, #781077). In a first step, 25 μl of goat anti human IgG (Sigma, #12136), diluted 1:1000 in coating buffer (Candor, #121125) was coated on the plate at 4° C. overnight. Next day, the plate was washed one time with 50 μl PBST and then blocked with 50 μl SmartBlock (Candor, #113125) for one hour at room temperature (RT). […] After three additional washes of the coated and blocked microtiter plate with PBS-T, 25 μl of each mixture were added and the assay plate was incubated for one hour at room temperature. After three additional washes, anti-mouse-gp130 biotinylated antibody (R&D, #BAF468) or anti-human gp130 biotinylated antibody (R&D, #BAF228), both 1:1000 in 10% SmartBlock PBS-T, was added and incubated for 1 hour at RT. After three additional washes, a Streptavidin-Peroxidase conjugate (Sigma, #S5512) 1:1000 in SmartBlock PBS-T was added and incubated for one hour at room temperature. After a final three washes, AmplexRed (Fisher Scientific, A12222), 1/1000 in PBS, 0,003% H₂O₂, was added as substrate and incubated for 15 min at RT in the dark. Then, the fluorescence was measured with a plate reader at 535/595 nm. Signals from dose responses were used to calculate IC50 values using GraphPad Prism software.

binding result [1]: no binding (tested: 3.3E-7 [M] antibody)
ratio of the signals versus the isotype control TPP-10159 [2]: 2.4
Efficacy (%) [3]: 60.4%
IC50 [3]: 55 nM
B1: TPP-18087 (antibody, mouse IgG1, V domains shown)
VH: EVQLLESGGGLVQPGGSLRLSCAASGFTFSHYDMNWLRQAPGKGLEWVGVISYDGSNKFYADFVKGRFTISRDNSKNTLYLQMNSLRAEDTAVYYCARTPGSHFDYWGQGTLVTVSS
VL: QSVLTQPPSASGTPGQRVTISCSGSSSNIGNNAVNWYQQLPGTAPKLLIYYDDLLPSGVPDRFSGSKSGTSASLAISGLRSEDEADYYCSAWDDSLNGVVFGGGTKLTVLG
notes: mIgG1, Lambda

binding result [1]: no binding (tested: 3.3E-7 [M] antibody)
ratio of the signals versus the isotype control TPP-10159 [2]: 0.8
Efficacy (%) [3]: 57%
IC50 [3]: 20 nM
B2: TPP-19528 (antibody, mouse IgG1, V domains shown)
VH: EVQLLESGGGLVQPGGSLRLSCAASGFTFSIYAMSWVRQAPGKGLEWVSSISDTGDRTYYADSVKGRFTISRDNSKNTLYLQMNSLRAEDTAVYYCARSNWGSLDYWGQGTLVTVSS
VL: B1 VL with N31S, A33Y, N35Y, S90A, N97S, V99R
notes: mIgG1, Lambda
